Data on 167 variants can be found in the RNAGym collection of RNA variant scans (doi:10.7554/elife.80360).

B1: Hairpin Ribozyme (parent)
chain: GUCCUCUUUCACGUGCGCGUGAAAGAGAGAAGUGAACCAGAGAAACACACGUUGUGGUAUAUUACCUGGUA

The variants in this series derive from B1. Briefly: self-cleavage, relative activity (ratio to wild type); higher = more cleavage; co-transcriptional.
As to G25C A31G, the self-cleavage is 0.153. In the case of G27C A31G it was 0.124; in that of G27C A31C, 0.131. On to A26U A71U, for which the self-cleavage turned out to be 0.433. Turning to G25C A61G, the self-cleavage was determined as 0.115.

Take G27A A30U: the self-cleavage came to 0.0812. Regarding G25U G69A, the self-cleavage was 0.261. Take A26G A61U: the self-cleavage was found to be 0.281. With G25U U63A, the self-cleavage was 0.184. Regarding G25C C38A, the self-cleavage amounted to 0.0929. In the case of G27A G42A it was 0.153; in that of G25C A26C, 0.199; in that of G25C A26U, 0.248. G25U A61G: the self-cleavage stood at 0.178. For the variant G25U A61C, the self-cleavage stood at 0.231.

G25U A41U: the self-cleavage came out at 1.08.

With G25U C66G, the self-cleavage worked out at 0.177. In the case of G25U C66A, the self-cleavage was 0.182. On to G27A A64C, for which the self-cleavage was determined as 0.189.

Turning to A26G A30G, the self-cleavage turned out to be 0.0496.

For A26G A30C, the self-cleavage came out at 0.0939. Turning to G25C A35U, the self-cleavage was 0.228.

With A26C U53G, the self-cleavage is 0.883. In the case of A26G G29U it was 0.0885; in that of A26U G27U, 0.0812; in that of G25U U62G, 0.237.

With G25U U62A, the self-cleavage worked out at 0.114. Take G25A A31U: the self-cleavage came to 0.0553.

In the case of A26U A28G, the self-cleavage is 1.

For the variant G25A A49C, the self-cleavage came to 0.232. Regarding G25A U67A, the self-cleavage is 0.118. In the case of G27A G29C, the self-cleavage is 0.12. Regarding A26C A71U, the self-cleavage was determined as 0.567. Take G25A G57U: the self-cleavage was found to be 0.113. Regarding A26U G29A, the self-cleavage was 0.198. Consider A26G A43C, for which the self-cleavage amounted to 0.11. In the case of A26G A43G, the self-cleavage amounted to 0.114. G27C A44C: the self-cleavage came to 0.0898. Regarding G25A U60C, the self-cleavage came to 0.976. Turning to G25A U60A, the self-cleavage worked out at 0.626. In the case of G27A G57A, the self-cleavage worked out at 0.145. Turning to G27A U58C, the self-cleavage came out at 0.516. In the case of G27A A35G, the self-cleavage was 0.449.

G27A A35U: the self-cleavage was determined as 0.261. As for G27A G56A, the self-cleavage amounted to 0.116. On to A26C U70A, for which the self-cleavage was found to be 0.63. For the variant G25A A71G, the self-cleavage was determined as 0.66. G25A A71U: the self-cleavage amounted to 0.553. In the case of G27A A44G, the self-cleavage is 0.0958. As to A26C A28U, the self-cleavage was 0.291. Regarding A26C G56A, the self-cleavage worked out at 0.163.

Consider A26C G56C, for which the self-cleavage is 0.0943.

For the variant G25U A30C, the self-cleavage amounted to 0.146. In the case of G27A A45U, the self-cleavage was determined as 0.201. Regarding A26U U33G, the self-cleavage was 0.107.

In the case of A26U C65G, the self-cleavage was 0.111. Turning to G25A U70A, the self-cleavage turned out to be 0.519. For G25A C38A, the self-cleavage worked out at 0.173. In the case of G25A C38G it was 0.252; in that of A26C U62G, 0.0946. With A26U G42U, the self-cleavage came out at 0.173. In the case of A26U G42C it was 0.139. In the case of A26C A30C it was 0.25; in that of G25A A47U, 0.108. Consider G27A A71U, for which the self-cleavage was determined as 0.28. In the case of A26C G42C it was 0.357; in that of A26G U53A, 0.814; in that of A26G U53C, 0.565. In the case of A26U C46U it was 0.11; in that of G25U C46G, 0.153; in that of A26U A31C, 0.171.

With A26C U52C, the self-cleavage is 0.811. As to G25A G51U, the self-cleavage came to 0.724. In the case of A26C G34A it was 0.906; in that of G27C A43U, 0.151. G25U G32A: the self-cleavage was 0.128. In the case of A26G A35G it was 0.763.

As for A26G A35C, the self-cleavage is 0.799.

With A26G A35U, the self-cleavage stood at 0.523. In the case of G27C A28U it was 0.138.

G27C A28G: the self-cleavage was 0.128. As for G27C A28C, the self-cleavage came to 0.164. With G25C U70C, the self-cleavage is 0.401. In the case of G25C U70A, the self-cleavage was determined as 0.574. As to G25U C37G, the self-cleavage came to 0.182.

Turning to G25U C37U, the self-cleavage turned out to be 0.427.

As for A26C A35G, the self-cleavage came out at 0.529. As to A26C A35U, the self-cleavage is 0.495. For the variant G25C A44C, the self-cleavage is 0.174. Turning to A26U U70G, the self-cleavage turned out to be 0.397. As to A26U U70A, the self-cleavage came out at 0.575. Consider A26C A49C, for which the self-cleavage was determined as 0.218. In the case of G25C A28U, the self-cleavage amounted to 0.327. With G25A A28G, the self-cleavage was 0.849.

A26U A47C: the self-cleavage is 0.151.

For A26U A61G, the self-cleavage was 0.187.

As for A26U A61C, the self-cleavage turned out to be 0.226.

Turning to A26C U55C, the self-cleavage was 0.211.

Regarding G25A G56A, the self-cleavage came out at 0.105. For G25A G56C, the self-cleavage came to 0.117. Take G25A A61G: the self-cleavage is 0.208.

Regarding A26G C37G, the self-cleavage came out at 0.237. As to A26G C37U, the self-cleavage is 0.602. Turning to G25C C37U, the self-cleavage turned out to be 0.502. Regarding A26G G34U, the self-cleavage was 1.37. Regarding A26G G34A, the self-cleavage worked out at 1.19. With A26G A39G, the self-cleavage came to 0.379. For G25C G51U, the self-cleavage was found to be 0.624.

Turning to G25A U55A, the self-cleavage amounted to 0.149. In the case of A26C G32C, the self-cleavage was 0.175. Regarding A26C G32A, the self-cleavage was found to be 0.0538. Consider G25U A39G, for which the self-cleavage was determined as 0.191. Take A26G G57A: the self-cleavage was found to be 0.196.

As for A26G G57C, the self-cleavage is 0.103. Consider G25A G27C, for which the self-cleavage was found to be 0.155. For G27A G69A, the self-cleavage was 0.155. In the case of A26C G27U, the self-cleavage amounted to 0.0629. Consider A26C G27C, for which the self-cleavage was 0.197. Regarding G25A A36G, the self-cleavage stood at 0.605. In the case of G25A A36C, the self-cleavage turned out to be 0.301. On to A26C G54C, for which the self-cleavage was 0.243.

On to A26C U63A, for which the self-cleavage was determined as 0.175. For the variant G25C C50U, the self-cleavage was found to be 0.192.

On to A26G U67G, for which the self-cleavage stood at 0.281. As for A26U U67G, the self-cleavage turned out to be 0.2. As for A26U A36G, the self-cleavage was determined as 0.723. As to A26U U58C, the self-cleavage came to 0.657. G25U G40U: the self-cleavage is 0.132. In the case of A26G G69U it was 0.204; in that of A26G G69C, 0.403. In the case of G25C G29C, the self-cleavage turned out to be 0.166. With G25C G29U, the self-cleavage is 0.188. With A26U U53C, the self-cleavage came to 0.599. In the case of A26G C65G it was 0.23; in that of A26G C65U, 0.311.

For the variant A26C U33C, the self-cleavage stood at 0.143. As to A26C U33A, the self-cleavage came to 0.23. For G25U C38A, the self-cleavage turned out to be 0.216. Regarding G25U A43C, the self-cleavage was determined as 0.166. In the case of G27A U63A it was 0.103; in that of G27A U63C, 0.236; in that of G27A U63G, 0.134. For G27A U52A, the self-cleavage amounted to 0.337. Take G25U A64G: the self-cleavage amounted to 0.428. As for G25U A64U, the self-cleavage was found to be 0.142.

On to G25A C46G, for which the self-cleavage stood at 0.135. Turning to G25C U60A, the self-cleavage amounted to 0.392. As for G25C U60G, the self-cleavage was determined as 0.297. In the case of G27A A36U it was 0.198; in that of A26G A44U, 0.103. Consider G25A C50U, for which the self-cleavage stood at 0.315. Regarding A26G A47C, the self-cleavage is 0.251. Regarding A26G A47U, the self-cleavage turned out to be 0.152.

On to G25C U52G, for which the self-cleavage is 0.356. For G25C U52A, the self-cleavage worked out at 0.594. In the case of G27A C46A, the self-cleavage amounted to 0.103. For the variant G27A C46G, the self-cleavage worked out at 0.138.

A26G G54C: the self-cleavage worked out at 0.457.

As to G27C A39U, the self-cleavage worked out at 0.0549.

A26U A64U: the self-cleavage came out at 0.175. Turning to G27A U53A, the self-cleavage came out at 0.371. G25U A45C: the self-cleavage came out at 0.219. In the case of A26U U52C it was 0.656; in that of A26C C50G, 0.174; in that of G25C C46A, 0.129. G25U A31U: the self-cleavage came to 0.166. In the case of G25U A31C it was 0.176.
